For the test, the target named is H6GY-titin I28 protein. As to the kind of experiment: sedimentation equilibrium, 3 loading concentrations, ten fold molar excess of Ni2+; Ni(II)-mediated self-association (monomer-dimer).

The term Kd denotes the free concentration of one partner at which half of the binding sites on the other are occupied at equilibrium, for simple one-to-one binding. Low readings indicate a tighter complex, high ones a looser complex. Substance H6GY-titin I28 protein came in with a dissociation constant Kd of 200 µM.
